# From patent US20240325481A1 (MOREHOUSE SCHOOL OF MEDICINE, published 2024)
# Biological target: gp120 of HIV-1NL4-3 virus (on virus particles) (HIV-1 (NL4-3))
# Experiment: cell-based or functional assay
binder,measurement,value
"MoMo30 protein (hevamine A-related protein) from Momordica balsamina, purified from leaf extract (other) GGIATYWGQDTREGRLTAACATGKFQIINIGFLSTFGNGRPPQVNLTRHCSPISNGCRNVSVGVLNCRNDGVKVMLSIGGPHGSYSLSSAAEAIDLADYIWNNFLGGRSTSLRPFGDVPLDGVDFRIERGQFSHYYTMVARRLHDYGRQCSRKVYLTAAPGCRFPDKYLTELLHTGLFDYVWVRFFDDRQCQYNSVNPSGFWWSWMRWINSIPARKFYVGIPASEEAGDGYVAPEVLIKEVLPFTKKFTNYGGVMLFDLSNDVQTNYSSIISNRV","IC50, inhibition of HIV-1NL4-3 infectivity in MAGI cell assay",2.8 nM
